Measurements published in article PMC9478674 (Proceedings of the National Academy of Sciences of the …, 2022).

Target: T1, KaiC S431E;T432A (KaiC-EA) (UniProt Q79PF4 1-519, S431E | T432A)
T1 sequence (looked up): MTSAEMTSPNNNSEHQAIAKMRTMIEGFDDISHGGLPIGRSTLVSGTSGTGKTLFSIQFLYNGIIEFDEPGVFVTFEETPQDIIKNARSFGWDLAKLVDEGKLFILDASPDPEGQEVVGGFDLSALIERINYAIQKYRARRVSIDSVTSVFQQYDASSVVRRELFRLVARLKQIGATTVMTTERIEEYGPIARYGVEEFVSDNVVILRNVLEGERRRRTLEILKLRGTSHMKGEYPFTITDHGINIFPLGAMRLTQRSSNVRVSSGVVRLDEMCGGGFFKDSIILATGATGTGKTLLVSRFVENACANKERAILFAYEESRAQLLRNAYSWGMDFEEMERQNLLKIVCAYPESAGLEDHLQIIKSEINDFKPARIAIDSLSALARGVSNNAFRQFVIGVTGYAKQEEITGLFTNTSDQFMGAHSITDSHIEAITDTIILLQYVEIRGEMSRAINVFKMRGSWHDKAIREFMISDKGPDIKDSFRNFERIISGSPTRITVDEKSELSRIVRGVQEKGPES
Assay: co-IP

- binding result: binds
B1: wildtype KaiB-FLAG (natural protein, UniProt Q79PF5 1-102, looked up)
chain: MSPRKTYILKLYVAGNTPNSVRALKTLKNILEVEFQGVYALKVIDVLKNPQLAEEDKILATPTLAKVLPLPVRRIIGDLSDREKVLIGLDLLYGELQDSDDF
